Test results taken from patent US11028172 (LEPU BIOPHARMA, dated 2021).
Substitutions are numbered along the chain they refer to.

T1: human TIGIT expressed on cells (human, UniProt Q495A1 22-244)
T1 sequence (looked up): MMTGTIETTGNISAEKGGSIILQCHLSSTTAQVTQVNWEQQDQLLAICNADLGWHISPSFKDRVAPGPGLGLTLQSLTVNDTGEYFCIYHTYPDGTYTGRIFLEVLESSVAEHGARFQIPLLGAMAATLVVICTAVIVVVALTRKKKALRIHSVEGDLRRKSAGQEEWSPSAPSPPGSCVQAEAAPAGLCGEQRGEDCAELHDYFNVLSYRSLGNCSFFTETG

T2: human TIGIT-His protein (human, UniProt Q495A1 22-141)
T2 construct: Recombinant protein; also called human TIGIT-his tag; hTIGIT-His
T2 sequence (looked up): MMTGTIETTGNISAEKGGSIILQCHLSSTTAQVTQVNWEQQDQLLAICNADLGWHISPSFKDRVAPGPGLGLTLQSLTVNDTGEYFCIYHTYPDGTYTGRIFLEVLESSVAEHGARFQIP

T3: biotin-labeled human TIGIT protein (human, UniProt Q495A1 22-141, biotin-labeled (sites not given))
T3 construct: also called recombinant human TIGIT
T3 sequence (looked up): T2 sequence (looked up)

B1: LP010-02 (Hu02-human IgG1 Fc) (antibody, V domains shown)
VH: EVQLQESGPGLVKPSETLSLTCAVSGYSISSGYDWHWIRQPPGKGLEWIGFIRDSGSTVYNPSLKGRITISHDTSKNQFSLKLSSVTAADTAVYYCARGLFWYFDVWGQGTTVTVSS
VL: DIQMTQSPSSLSASVGDRVTITCRTSENIFSYLAWYQQKPGKVPKLLIYNTKTLAEGVPSRFSGSGSGTDFTLTISSLQPEDVATYYCQHHYGNPLTFGQGTKLEIK
B2: Tiragolumab (RG6058, Roche) (antibody, V domains shown)
VH: EVQLQQSGPGLVKPSQTLSLTCAISGDSVSSNSAAWNWIRQSPSRGLEWLGKTYYRFKWYSDYAVSVKGRITINPDTSKNQFSLQLNSVTPEDTAVFYCTRESTTYDLLAGPFDYWGQGTLVTVSS
VL: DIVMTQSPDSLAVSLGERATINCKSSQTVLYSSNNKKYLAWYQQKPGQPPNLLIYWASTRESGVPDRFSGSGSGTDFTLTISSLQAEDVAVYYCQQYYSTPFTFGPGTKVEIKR
B3: 76D12B10-Hu08 (antibody, V domains shown)
VH: B1 VH with I49M
VL: B1 VL with Y49H
notes: Humanized, VH.V3 + VK.V1
B4: 76D12B10-Hu15 (antibody, V domains shown)
VH: B1 VH with V24A, S30T, G45K, I49M, Y95F
VL: B1 VL with I48V, Y49H
notes: Humanized, VH.V5 + VK.V2
B5: 76D12B10-Hu07 (antibody, V domains shown)
VH: B1 VH
VL: B1 VL with Y49H
notes: Humanized, VH.V2 + VK.V1
B6: 76D12B10-Hu02 (antibody, V domains shown)
VH: B1 VH
VL: B1 VL
notes: Humanized, VH.V2 + VK.V0
B7: 76D12B10-Hu12 (antibody, V domains shown)
VH: B1 VH
VL: B1 VL with I48V, Y49H
notes: Humanized, VH.V2 + VK.V2
B8: 76D12B10-Hu11 (antibody, V domains shown)
VH: B1 VH with I68V
VL: B1 VL with I48V, Y49H
notes: Humanized, VH.V1 + VK.V2
B9: 76D12B10-Hu14 (antibody, V domains shown)
VH: B1 VH with V24A, S30T, I49M
VL: B1 VL with I48V, Y49H
notes: Humanized, VH.V4 + VK.V2
B10: 76D12B10-Hu09 (antibody, V domains shown)
VH: B1 VH with V24A, S30T, I49M
VL: B1 VL with Y49H
notes: Humanized, VH.V4 + VK.V1
B11: 76D12B10-Hu03 (antibody, V domains shown)
VH: B1 VH with I49M
VL: B1 VL
notes: Humanized, VH.V3 + VK.V0
B12: 76D12B10-Hu05 (antibody, V domains shown)
VH: B1 VH with V24A, S30T, G45K, I49M, Y95F
VL: B1 VL
notes: Humanized, VH.V5 + VK.V0
B13: 76D12B10-Hu10 (antibody, V domains shown)
VH: B1 VH with V24A, S30T, G45K, I49M, Y95F
VL: B1 VL with Y49H
notes: Humanized, VH.V5 + VK.V1
B14: 76D12B10-Hu04 (antibody, V domains shown)
VH: B1 VH with V24A, S30T, I49M
VL: B1 VL
notes: Humanized, VH.V4 + VK.V0
B15: 76D12B10-Hu06 (antibody, V domains shown)
VH: B1 VH with I68V
VL: B1 VL with Y49H
notes: Humanized, VH.V1 + VK.V1
B16: 76D12B10-Hu01 (antibody, V domains shown)
VH: B1 VH with I68V
VL: B1 VL
notes: Humanized, VH.V1 + VK.V0
B17: 76D12B10-Hu13 (antibody, V domains shown)
VH: B1 VH with I49M
VL: B1 VL with I48V, Y49H
notes: Humanized, VH.V3 + VK.V2

Molecular target: T1, human TIGIT expressed on cells
Experiment: cell-based or functional assay

EC50, NFAT luciferase reporter (RLU), TIGIT-CD226-NFAT effector cells with Raji-CD155 target cells | LogEC50, NFAT luciferase reporter (RLU), TIGIT-CD226-NFAT effector cells with Raji-CD155 target cells | Binder
1.95 nM | 0.29 Log[Conc.]/nM | B1
2.95 nM | 0.47 Log[Conc.]/nM | B2

Molecular target: T2, human TIGIT-His protein
Experiment: ELISA, plate coated with human TIGIT-His, anti-human IgG-HRP, OD 450nm; unit taken from the axis Log[Conc.]/ng/ml
Experimental: (§1) To evaluate the antigen binding activity, the humanized antibodies were subjected to ELISA test. Briefly, microtiter plates were coated with human TIGIT-his protein at 0.5 µg/ml in PBS, 100 µl/well at 4° C. overnight, then blocked with 150 µl/well of 1% BSA. Three-fold dilutions of humanized antibodies starting from 3 µg/ml were added to each well and incubated for 1 hour at 37° C. The plates were washed with PBS/Tween and then incubated with Goat-anti-human IgG antibody conjugated with Horse Radish Peroxidase (HRP) for 30 mins at 37° C. After washing, the plates were developed with TMB substrate and analyzed by spectrophotometer at OD 450 nm.

EC50 | Binder
0.00954 µg/mL | B3
0.00968 µg/mL | B4
0.0107 µg/mL | B5
0.0103 µg/mL | B6
0.0111 µg/mL | B7
0.00709 µg/mL | B8
0.0107 µg/mL | B9
0.00495 µg/mL | B10
0.0106 µg/mL | B11
0.0101 µg/mL | B12
0.00401 µg/mL | B13
0.00996 µg/mL | B14
0.0104 µg/mL | B15
0.00989 µg/mL | B16
0.0121 µg/mL | B17

Molecular target: T2, human TIGIT-His protein
Experiment: as above
Remark: another data set of the same source
Experimental: To evaluate the antigen binding activity, LP010-02 (Hu02-human IgG1 Fc) and control antibody Tiragolumab (RG6058, Roche), which contains the same IgG1 Fc, were subjected to ELISA testing. Briefly, microtiter plates were coated with human TIGIT-his protein at 0.5 µg/ml in PBS, 100 µl/well at 4° C. overnight, then blocked with 150 µl/well of 1% BSA. Three-fold dilutions of humanized antibodies starting from 3 µg/ml were added to each well and incubated for 1 hour at 37° C. The plates were washed with PBS/Tween and then incubated with Goat-anti-human IgG antibody conjugated with Horse Radish Peroxidase (HRP) for 0.5 hour at 37° C. After washing, the plates were developed with the TMB substrate and analyzed by spectrophotometer at OD 450 nm.

EC50 | Binder
0.00654 µg/mL | B1

Molecular target: T2, human TIGIT-His protein
Experiment: as above
Remark: another data set of the same source
Experimental: as §1, with “Hu02 and Hu06” for “the humanized antibodies”, “0.5 hour” for “30 mins”

EC50 | Binder
0.00823 µg/mL | B6
0.00934 µg/mL | B15

Molecular target: T1, human TIGIT expressed on cells
Experiment: flow cytometry (FACS) on human TIGIT overexpressing mammalian cells
Experimental: (§2) To evaluate the antigen binding property, the humanized antibodies were analyzed for their binding to human TIGIT overexpressed mammalian cells by FACS. Briefly, human TIGIT cells were firstly incubated with 3-fold serious diluted humanized antibodies starting at 5 µg/ml at 4° C. for 40 mins.

EC50 | Binder
0.0328 µg/mL | B1
0.0368 µg/mL | B2

Molecular target: T1, human TIGIT expressed on cells
Experiment: flow cytometry on human TIGIT overexpressing cells, Alexa Fluor 647 anti-human IgG; unit from the x axis
Experimental: as §2

LogEC50 | Binder
1.52 Log[Conc.]/ng/ml | B1
1.57 Log[Conc.]/ng/ml | B2

Molecular target: T2, human TIGIT-His protein
Experiment: SPR (Biacore T200) full kinetics, antibody captured on Protein A chip, hTIGIT-His as analyte
Experimental: The binding of the humanized antibodies to recombinant TIGIT protein (human TIGIT-his tag) was tested by BIACORE™ using a capture method. Hu02 and Hu06 mAbs were captured using Protein A chip. A serial dilution of human TIGIT-his tag protein was injected over captured antibody for 2 mins at a flow rate of 30 µl/min. The antigen was allowed to dissociate for 1800 s. All the experiment were carried out on a Biacore T200.

Kd | koff | kon | Binder
0.0462 nM | 9.27e-05 s⁻¹ | 2e+06 M⁻¹ s⁻¹ | B6
0.0416 nM | 7.18e-05 s⁻¹ | 1.72e+06 M⁻¹ s⁻¹ | B15

Molecular target: T1, human TIGIT expressed on cells
Experiment: cell-based or functional assay
Remark: another data set of the same source

NFAT luciferase production, EC50 | Binder
1.76 nM | B6
1.67 nM | B15

Molecular target: T3, biotin-labeled human TIGIT protein
Experiment: ELISA blocking assay: CD155-hFc coated, biotin-labeled human TIGIT, antibody titrated
Experimental: To evaluate the blocking effects of Hu02 and Hu06 on recombinant human TIGIT to bind to its receptor CD155, an ELISA based receptor blocking assay was used.
Briefly, microtiter plates were coated with human CD155-hFc protein at 5 µg/ml in PBS, 100 µl/well at 4° C. overnight, then blocked with 150 µl/well of 1% BSA. 50 µl biotin-labeled human TIGIT protein and 3-fold dilutions of Hu02 and Hu06 antibodies starting from 10 µg/ml at 50 µl were added to each well and incubated for 1 hour at 37° C. The plates were washed with PBS/Tween and then incubated with Streptavidin-HRP for 10 mins at 37° C. After washing, the plates were developed with TMB substrate and analyzed by spectrophotometer at OD 450 nm.

IC50 | Binder
0.531 µg/mL | B1
1.13 µg/mL | B6
0.866 µg/mL | B15

Molecular target: T2, human TIGIT-His protein
Experiment: SPR (Biacore) affinity ranking, human TIGIT-His

Kd | koff | kon | Binder
0.0192 nM | 9.73e-05 s⁻¹ | 5.06e+06 M⁻¹ s⁻¹ | B3
0.0135 nM | 0.000105 s⁻¹ | 7.76e+06 M⁻¹ s⁻¹ | B4
0.0186 nM | 8.93e-05 s⁻¹ | 4.8e+06 M⁻¹ s⁻¹ | B5
0.0196 nM | 9.74e-05 s⁻¹ | 4.98e+06 M⁻¹ s⁻¹ | B6
0.0244 nM | 0.00014 s⁻¹ | 5.75e+06 M⁻¹ s⁻¹ | B7
0.0255 nM | 9.21e-05 s⁻¹ | 3.62e+06 M⁻¹ s⁻¹ | B8
0.0196 nM | 9.97e-05 s⁻¹ | 5.09e+06 M⁻¹ s⁻¹ | B9
0.0139 nM | 0.000125 s⁻¹ | 9.01e+06 M⁻¹ s⁻¹ | B10
0.0143 nM | 0.00015 s⁻¹ | 1.05e+07 M⁻¹ s⁻¹ | B11
0.0165 nM | 9.75e-05 s⁻¹ | 5.92e+06 M⁻¹ s⁻¹ | B12
0.0266 nM | 9.79e-05 s⁻¹ | 3.68e+06 M⁻¹ s⁻¹ | B13
0.0191 nM | 9.85e-05 s⁻¹ | 5.15e+06 M⁻¹ s⁻¹ | B14
0.0136 nM | 0.000101 s⁻¹ | 7.43e+06 M⁻¹ s⁻¹ | B15
0.0701 nM | 0.000104 s⁻¹ | 1.48e+06 M⁻¹ s⁻¹ | B16
0.0281 nM | 0.000128 s⁻¹ | 4.54e+06 M⁻¹ s⁻¹ | B17
